Literature values in paper PMC8874714.

Molecular target: CYP102A1 (Priestia megaterium) (UniProt P14779)

CYP102A1 (from UniProt P14779)
Kd: 1.1 nM
